Data as given in paper PMC3329491, “Insight on an Arginine Synthesis Metabolon from the Tetrameric Structure of Yeast Acetylglutamate Kinase” (PLoS ONE, 2012).

Tests used:
[1] = target: the molecule itself; test: SEC; analytical size exclusion chromatography on Superdex 200 10/300, 24°C, 50 mM Hepes pH 7.5/0.25 M NaCl; elution volume against protein standards
[2] = target: the molecule itself; test: crystal structure; truncated yNAGK, space group P212121, four subunits in the asymmetric unit; with NAG, with NAG and arginine, or ligand-free; grown at 4°C, 50 mM Na acetate pH 4.6, 0.2 M Na-malonate, 2% PEG-8K

Protein	stoichiometry N [1]	stoichiometry N [2]
complete mature yeast N-acetyl-L-glutamate kinase (yNAGK), residues 58-513 (enzyme, Saccharomyces cerevisiae, UniProt Q01217 58-513, looked up, for crystallization only: surface-exposed lysine residues reductively dimethylated, N-acetyl-L-glutamate kinase of Saccharomyces cerevisiae, made by processing of the polyprotein precursor encoded by ARG5,6 (Uniprot Q01217); Amplified from pYB3 and inserted into pTrc99a; Methylated protein is stated for crystal NAGK1; Nothing says that the protein of the size exclusion run was methylated; also called complete yNAGK; complete mature yNAGK; source: E. coli BL21 (DE3), purified …) VSSTNGFSATRSTVIQLLNNISTKREVEQYLKYFTSVSQQQFAVIKVGGAIISDNLHELASCLAFLYHVGLYPIVLHGTGPQVNGRLEAQGIEPDYIDGIRITDEHTMAVVRKCFLEQNLKLVTALEQLGVRARPITSGVFTADYLDKDKYKLVGNIKSVTKEPIEASIKAGALPILTSLAETASGQMLNVNADVAAGELARVFEPLKIVYLNEKGGIINGSTGEKISMINLDEEYDDLMKQSWVKYGTKLKIREIKELLDYLPRSSSVAIINVQDLQKELFTDSGAGTMIRRGYKLVKRSSIGEFPSADALRKALQRDAGISSGKESVASYLRYLENSDFVSYADEPLEAVAIVKKDTNVPTLDKFVCSDAAWLNNVTDNVFNVLRRDFPALQWVVSENDANIAWHFDKSQGSYLKGGKVLFWYGIDDINTISELVENFVKSCDTASTLNSSASS	4	–
truncated yNAGK spanning residues 58 to 356 (AAK domain, lacking the C-terminal DUF619 domain) (domain or fragment, Saccharomyces cerevisiae, UniProt Q01217 58-356, looked up, A Se-Met-substituted form was used for phasing only (not deposited); also called truncated AAK; yNAGK lacking its C-terminal domain; source: E. coli BL21 (DE3), purified (HisTrap); not shown: MGH6 His-tag, N-terminal, kept) VSSTNGFSATRSTVIQLLNNISTKREVEQYLKYFTSVSQQQFAVIKVGGAIISDNLHELASCLAFLYHVGLYPIVLHGTGPQVNGRLEAQGIEPDYIDGIRITDEHTMAVVRKCFLEQNLKLVTALEQLGVRARPITSGVFTADYLDKDKYKLVGNIKSVTKEPIEASIKAGALPILTSLAETASGQMLNVNADVAAGELARVFEPLKIVYLNEKGGIINGSTGEKISMINLDEEYDDLMKQSWVKYGTKLKIREIKELLDYLPRSSSVAIINVQDLQKELFTDSGAGTMIRRGYKLVK	–	4
